Measurements from the supplement of paper PMC7877785.
± gives the uncertainty stated by the source.

Experiment: self-splicing fitness, log relative to wild type (ln ratio); higher = more splicing; Tetrahymena group I intron in knt gene, E. coli kanamycin selection, DiMSum; sequences stand for … in CUCUCU…GGAGGGAAAAGUUAUCAGGCAUGCACCUGGUAGCUAGUCUUUAAACCAAUAGAUUGCAUCGGUUUAAAAGGCAAGACCGUCAAAUUGCGGGAAAGGGGUCAACAGCCGUUCAGUACCAAGUCUCAGGGGAAACUUUGAGAUGGCCUUGCAAAGGGUAUGGUAAUAAGCUGACGGACAUGGUCCUAACCACGCAGCCAAGUCCUAAGUCAACAGAUCUUCUGUUGAUAUGGAUGCAGUUCACAGACUAAAUGUCGGUCGGGGAAGAUGUAUUCUUCUCAUAAGAUAUAGUCGGACCUCUCCUUAAUGGGAGCUAGCGGAUGAAGUGAUGCAACACUGGAGCCGCUGGGAACUAAUUUGUAUGCGAAAGUAUAUUGAUUAGUUUUGGAGUACUCGUGGUCG
Outline: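 Library with all eight P1ex-region intron nucleotides randomised, intron inside the knt kanamycin-resistance gene on pET-22b(+), in E. coli BL21(DE3). Cells grew overnight at 37°C or 30°C on LB agar with or without 25 μg/mL kanamycin (plus 100 μg/mL carbenicillin, 50 μM IPTG, 0.2% rhamnose), in six replicate transformations. Pooled colonies were amplicon-sequenced on Illumina HiSeq 2500. DiMSum fitness is the error-weighted combination of wild-type-normalised replicate fold changes, kanamycin versus none.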

| Sequence | self-splicing fitness (ln) (30 °C) | self-splicing fitness (ln) (37 °C) |
| --- | --- | --- |
| UGGAAGCAAUAUUACGAGAU | -3.92 ± 0.26 | -2.47 ± 0.21 |
| UGGAAGCAAUAUUACGAGUG | -1.38 ± 0.09 | -0.586 ± 0.12 |
| UGGAAGCAAUAUUACGAUUG | -1.76 ± 0.12 | -0.362 ± 0.12 |
| UGGAAGCAAUAUUACGAUUU | -2.48 ± 0.087 | -1.7 ± 0.092 |
| UGGAAGCAAUAUUACGCGAA | -1.68 ± 0.16 | -1.03 ± 0.15 |
| UGGAAGCAAUAUUACGCGCG | 0.222 ± 0.15 | 0.698 ± 0.15 |
| UGGAAGCAAUAUUACGCGGA | -1.17 ± 0.2 | -1.88 ± 0.23 |
| UGGAAGCAAUAUUACGCUAU | -2.52 ± 0.18 | -2.72 ± 0.29 |
| UGGAAGCAAUAUUACGCUUG | -3.54 ± 0.26 | -2.53 ± 0.29 |
| UGGAAGCAAUAUUACGGACA | -1.03 ± 0.13 | -0.0422 ± 0.11 |
| UGGAAGCAAUAUUACGGAUC | -2.47 ± 0.34 | -1.54 ± 0.24 |
| UGGAAGCAAUAUUACGGCUU | -2.94 ± 0.32 | -1.73 ± 0.45 |
| UGGAAGCAAUAUUACGGGCU | -3.13 ± 0.27 | -1.32 ± 0.2 |
| UGGAAGCAAUAUUACGGUUA | -1.04 ± 0.11 | -0.0733 ± 0.099 |
| UGGAAGCAAUAUUACGUCAA | -1.53 ± 0.12 | -0.758 ± 0.13 |
| UGGAAGCAAUAUUACGUCAG | -0.777 ± 0.12 | -0.119 ± 0.16 |
| UGGAAGCAAUAUUACGUCAU | -2.99 ± 0.35 | -3.01 ± 0.3 |
| UGGAAGCAAUAUUACGUGAA | -1.33 ± 0.096 | -1.65 ± 0.12 |
| UGGCAGCAAUAUUACGAAAG | -2.17 ± 0.14 | -1.19 ± 0.13 |
| UGGCAGCAAUAUUACGACCC | 0.0617 ± 0.19 | -0.655 ± 0.18 |
| UGGCAGCAAUAUUACGACUU | 0.0485 ± 0.093 | 0.468 ± 0.1 |
| UGGCAGCAAUAUUACGAUGA | -0.639 ± 0.12 | -0.971 ± 0.14 |
| UGGCAGCAAUAUUACGAUGC | -3.93 ± 0.28 | -2.65 ± 0.41 |
| UGGCAGCAAUAUUACGCAAG | -3.83 ± 0.18 | -2.44 ± 0.18 |

| Sequence | self-splicing fitness (ln) (30 °C) | self-splicing fitness (ln) (37 °C) |
| --- | --- | --- |
| UGGCAGCAAUAUUACGCCCA | -1.66 ± 0.15 | 0.585 ± 0.24 |
| UGGCAGCAAUAUUACGCCUA | -0.238 ± 0.21 | 0.697 ± 0.42 |
| UGGCAGCAAUAUUACGCGAU | -2.67 ± 0.18 | -2.01 ± 0.21 |
| UGGCAGCAAUAUUACGCGGC | -4.17 ± 0.29 | -2.23 ± 0.26 |
| UGGCAGCAAUAUUACGCGUC | -3.54 ± 0.37 | -2.21 ± 0.3 |
| UGGCAGCAAUAUUACGCGUG | -1.25 ± 0.14 | -0.356 ± 0.14 |
| UGGCAGCAAUAUUACGCUCA | -0.353 ± 0.13 | 0.629 ± 0.18 |
| UGGCAGCAAUAUUACGGACC | -2.02 ± 0.33 | -0.716 ± 0.24 |
| UGGCAGCAAUAUUACGGAUU | -3.95 ± 0.24 | -1.88 ± 0.2 |
| UGGCAGCAAUAUUACGGCCG | -3.49 ± 0.16 | -1.77 ± 0.16 |
| UGGCAGCAAUAUUACGGCGA | 0.0623 ± 0.12 | 0.97 ± 0.13 |
| UGGCAGCAAUAUUACGGCUC | -0.609 ± 0.082 | -0.683 ± 0.11 |
| UGGCAGCAAUAUUACGUAUU | -2.73 ± 0.12 | -1.27 ± 0.11 |
| UGGCAGCAAUAUUACGUCCA | -1.23 ± 0.12 | -0.471 ± 0.16 |
| UGGCAGCAAUAUUACGUCUU | -0.0989 ± 0.044 | 0.494 ± 0.059 |
| UGGCAGCAAUAUUACGUUAU | -2.25 ± 0.11 | -1.91 ± 0.16 |
| UGGCAGCAAUAUUACGUUGG | -2.33 ± 0.11 | -0.227 ± 0.13 |
| UGGGAGCAAUAUUACGAUGU | -3.95 ± 0.33 | -2.53 ± 0.3 |
| UGGGAGCAAUAUUACGAUUG |  | -2.29 ± 0.4 |
| UGGGAGCAAUAUUACGCACG | -3.26 ± 0.37 |  |
| UGGGAGCAAUAUUACGCCGA | -0.637 ± 0.4 | -0.137 ± 0.24 |
| UGGGAGCAAUAUUACGCCUA | -2.63 ± 0.44 | -1.75 ± 0.32 |
| UGGGAGCAAUAUUACGCGAG | -1.25 ± 0.19 | -2.26 ± 0.27 |
